Assay results as given in patent publication US20130096276A1.

Molecular target: human immunoglobulin G drug separated from human plasma (Gammagard, Baxter) (human)

Ka	Substance
6.5e+07 M⁻¹	C-G29A/K35R/D37E.5d (designed binder)
3e+08 M⁻¹	C-G29A/D36R.5d (designed binder)
